Data published in paper PMC8187598.

Assays:
[1] = target: His-tagged α subunit of acetyl-CoA carboxylase (AccA), biotinylated (Streptomyces hygroscopicus var. ascomyceticus FS35)
[2] = target: His-tagged α subunit of acetyl-CoA carboxylase (AccA), biotinylated (Streptomyces hygroscopicus var. ascomyceticus FS35); remark: listed apart in the source

in vitro activity of ACC in the coupled enzyme assay with 5 μM GlnB, against 100% without GlnB [1]: 54.2%
in vitro activity of PCC in the coupled enzyme assay with 5 μM GlnB, against 100% without GlnB [1]: 76.5%
maximal calculated inhibition of ACC by GlnB at rising concentrations (from 0 μM, stable above 1.5 μM), without 2-OG [2]: 50%
maximal calculated inhibition of PCC by GlnB at rising concentrations (from 0 μM, stable above 1.5 μM), without 2-OG [2]: 24.7%
B1: GlnB protein (PII signal transduction protein encoded by gene 1_2537), native (untagged) (natural protein)
chain: MSIKAEYIWIDGTQPTAKLRSKTKILSDGSRLPRWGFDGSSTNQAEGHASDLVLEPVFSCPDPIRGGDHLLVLCEVLHTDLTPHPSNTRALLRPVAERFAGQEPIFGIEQEYTFLKGDRPLGFPEGGGYPAPQADYYCGVGADAIFGREIVEKHLDLCLAAGLGLSGINAEVMPGQWEFQVGALPPLEVSDHMWVARWLLHRVAEEFGVTASLDAKPAKGDWNGAGAHTNFSTRAMREGYDPIITACEALGQDDKPLEHVRQYGTGIEDRLTGAHETAPWDAYSYGASDRGASVRIPWQVEVEKKGYIEDRRPNANVDPYVVTRLMVDTCCTELARREQI
